Source: publication PMC3360202

Columns and labels:
P1MYB (N6His-ZmP1MYB) [1] = molecular target: T1, P1MYB (N6His-ZmP1MYB) (Zea mays, UniProt P27898 9-116); assay: EMSA
P1MYB (N6His-ZmP1MYB) [2] = molecular target: T1, P1MYB (N6His-ZmP1MYB); assay: competition
P1MYB (N6His-ZmP1MYB) [3] = molecular target: T1, P1MYB (N6His-ZmP1MYB); assay: EMSA; remark: listed apart in the source

T1 sequence (P27898 9-116): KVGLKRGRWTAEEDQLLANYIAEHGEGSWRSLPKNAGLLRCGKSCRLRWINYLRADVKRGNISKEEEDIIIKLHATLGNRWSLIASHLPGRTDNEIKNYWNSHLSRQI

Row | Binder | binding result (P1MYB (N6His-ZmP1MYB) [2]) | also measured
1 | APB1 (dsDNA) DNA 1: GATCCGGGTCAGTGTACCTACCAACCTTAAACAC DNA 2: GATCGTGTTTAAGGTTGGTAGGTACACTGACCCG | – | binding result (P1MYB (N6His-ZmP1MYB) [1]): binds
2 | comp1 (dsDNA) DNA 1: CTATTACTCGTTAGTTGGATTTTAGTTT DNA 2: AAACTAAAATCCAACTAACGAGTAATAG | binds | –
3 | comp3 (dsDNA) DNA 1: TAGATGTGATTCGTTAGGTGTGTTTTTATAA DNA 2: TTATAAAAACACACCTAACGAATCACATCTA | binds | –
4 | FLSbind (dsDNA) DNA 1: GAGTTTCTGGTAGGTGCGTCGTACGGCCAG DNA 2: CTGGCCGTACGACGCACCTACCAGAAACTC | – | binding result (P1MYB (N6His-ZmP1MYB) [3]): binds
5 | comp2 (dsDNA) DNA 1: CCAAGTCAAAATCCAACCATTATCTCTTGA DNA 2: TCAAGAGATAATGGTTGGATTTTGACTTGG | binds | –
